The source of these data is publication PMC4555227, “GABPα Binding to Overlapping ETS and CRE DNA Motifs Is Enhanced by CREB1: Custom DNA Microarrays”.

Changes are numbered by the printed parent chain. A value given as a limit tells only on which side of the number the result lay.

First the molecules themselves.
T1: GABPα-GST (ETS domain) (UniProt Q00422 320-400)
T1 sequence: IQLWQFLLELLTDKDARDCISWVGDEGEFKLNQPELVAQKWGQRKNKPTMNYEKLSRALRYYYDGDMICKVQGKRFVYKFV

T2: GABPα-GST (ETS domain);CREB1 B-ZIP domain (mouse?;mouse, UniProt Q00422;Q01147 320-400;269-327, |)
T2 sequence 1: T1 sequence
T2 sequence 2: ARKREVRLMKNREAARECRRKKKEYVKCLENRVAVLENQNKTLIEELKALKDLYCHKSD

B1: ETS-CRE GC motif probe (dsDNA)
DNA 1: GTCCTCAAGAGCGGAAGTGACGTCACGACTCAGGTGGGACACACTTTAACACATGGAGAG
DNA 2: CTCTCCATGTGTTAAAGTGTGTCCCACCTGAGTCGTGACGTCACTTCCGCTCTTGAGGAC
B2: CC SNP CCGGAACT (dsDNA)
DNA 1: B1 DNA 1 with G11C, G17C
DNA 2: B1 DNA 2 with C44G, C50G
B3: CC SNP TCGGAAGT (dsDNA)
DNA 1: B1 DNA 1 with G11T
DNA 2: B1 DNA 2 with C50A
B4: CC SNP CCGGAAA(T) (dsDNA)
DNA 1: B1 DNA 1 with G11C, G17A
DNA 2: B1 DNA 2 with C44T, C50G
B5: CC SNP CCGGACGT (dsDNA)
DNA 1: B1 DNA 1 with G11C, A16C
DNA 2: B1 DNA 2 with T45G, C50G
B6: CC SNP CGGGAAGT (dsDNA)
DNA 1: B1 DNA 1 with G11C, C12G
DNA 2: B1 DNA 2 with G49C, C50G
B7: GC SNP GGGGAAGT (dsDNA)
DNA 1: B1 DNA 1 with C12G
DNA 2: B1 DNA 2 with G49C
B8: GC SNP GCGGAAA(T) (dsDNA)
DNA 1: B1 DNA 1 with G17A
DNA 2: B1 DNA 2 with C44T
B9: GC SNP GCGGAACT (dsDNA)
DNA 1: B1 DNA 1 with G17C
DNA 2: B1 DNA 2 with C44G

For one data set, the target named is T1, GABPα-GST (ETS domain). Put plainly: PBM; GABPα-GST alone; PBM as in Badis et al. 2009 (buffer, salt, pH, temperature not stated); IVT proteins from 2.5-100 ng plasmid; Alexa Fluor 647 anti-GST detection. To be noted: protein: ivt; tags: GST; blunt.
Consider B1, for which the binding signal was 4 fold weaker than N1.

A further data set has as its target T2, GABPα-GST (ETS domain);CREB1 B-ZIP …. Put plainly: PBM; 8 ng:8 ng plasmid; PBM as in Badis et al. 2009 (buffer, salt, pH, temperature not stated); IVT proteins from 2.5-100 ng plasmid; Alexa Fluor 647 anti-GST detection. The following applies: protein: ivt;ivt; tags: GST;none; copies: 1;2; blunt.
Turning to B2, the binding signal stood at 20 fold increase by CREB1.

For the molecule B3, the binding signal is < 20 fold increase by CREB1 (up to). With B4, the binding signal was found to be 2 fold increase by CREB1. Still for that read-out and setting: the figure for B5 is < 20 fold increase by CREB1 (up to; abstract up to 23, most enhanced SNP); for B6 it is approximately 16 fold increase by CREB1.

The target is the same in another data set. The description is as above. To be noted: protein: ivt;ivt; tags: GST;none; copies: 1;2; blunt. This is another data set of the same source.
For the molecule B7, the binding signal is approximately 8 fold increase by CREB1.

Regarding B8, the binding signal was found to be 16 fold increase by CREB1.

In the case of B9, the binding signal was 8 fold increase by CREB1.
